Results: the supplement of paper PMC10126150
± gives the standard deviation of the averaged measurements.

System: ATP
Assay: switch fluorescence ratio, 500 uM ATP over buffer (Cy3 cluster intensity, sum of 5 cycles each) (fold (ratio)); higher = stronger signal-on switching upon ATP binding; sequences stand for … in TCGTCGGCAGCGTCAGATGTGTATAAGAGACAGTTTTTTTTTTTTTTTTTTTTTTTTT…TC
Settings: aptamer strand: ATP DNA aptamer (quencher-CACCTGGGGGAGTATTGCGGAGGAAGG + anchor), 100 nM annealed; ATP concentration: 500 uM
Outline: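 Switching-strand clusters labelled with Cy3 on a modified Illumina MiSeq flow-cell were annealed to 100 nM quencher-labelled ATP aptamer, imaged in selection buffer, and re-imaged after 15 min with 500 uM ATP at 22 °C. This was done over five cycles with NaOH stripping and re-annealing in between. The fluorescence ratio is summed target-cycle over summed buffer-cycle Cy3 intensity per cluster, averaged per switch-domain sequence, excluding clusters outside 100-1000 RFU.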
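Also: ATP exposure 15 min at 22 °C before imaging.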

TAAAAAGCAT and TAAAAAGCGG are the same in switch fluorescence ratio: 1.007 ± 0.0031 for the first, 1.01 ± 0.054 for the second.

TAAAAATTCA and TAAAAATTGC are within error of each other in switch fluorescence ratio: 1.009 ± 0.0021 for the first, 1.02 ± 0.048 for the second.

Compared with TAAAACGATC, TAAAACGGTG is higher in switch fluorescence ratio: 0.966 ± 0.036 for the first, 1.05 ± 0.029 for the second.

TAAAACTTGG and TAAAACTTTT are within error of each other in switch fluorescence ratio: 0.999 ± 0.065 for the first, 1.02 ± 0.043 for the second.

TAAAAGAACT and TAAAAGATCG are the same in switch fluorescence ratio: 1.03 ± 0.038 for the first, 1.03 ± 0.034 for the second.

Compared with TAAAAGCAAT, TAAAAGCTAA is lower in switch fluorescence ratio: 2.1 ± 0.9 for the first, 1 ± 0.031 for the second.

TAAAAGGGAA and TAAAAGGGAC are the same in switch fluorescence ratio: 1.01 ± 0.024 for the first, 1.01 ± 0.028 for the second.

TAAAAGGTCC and TAAAAGTCTA are within error of each other in switch fluorescence ratio: 1.04 ± 0.038 for the first, 0.9999 ± 0.0094 for the second.

TAAAATACGT and TAAAATATTA are within error of each other in switch fluorescence ratio: 0.995 ± 0.042 for the first, 1.03 ± 0.02 for the second.

TAAAATGGGT and TAAAATTAGT are within error of each other in switch fluorescence ratio: 0.996 ± 0.03 for the first, 0.9938 ± 0.0073 for the second.

TAAAATTATG and TAAAATTCGA are within error of each other in switch fluorescence ratio: 0.974 ± 0.019 for the first, 0.9784 ± 0.0059 for the second.

TAAAATTGGT and TAAAATTTTA are within error of each other in switch fluorescence ratio: 0.983 ± 0.027 for the first, 0.988 ± 0.023 for the second.

First: TAAACAGCTG
Second: TAAACATCAC
The switch fluorescence ratio of the first is lower: 0.955 ± 0.043 for the first, 1.164 ± 0.011 for the second.

TAAACGCTGG and TAAACTTG are within error of each other in switch fluorescence ratio: 0.999 ± 0.014 for the first, 1.04 ± 0.086 for the second.

TAAACTTGAC and TAAAGAAACT are within error of each other in switch fluorescence ratio: 1.16 ± 0.1 for the first, 1.28 ± 0.35 for the second.

TAAAGAAAGA and TAAAGAACAT are within error of each other in switch fluorescence ratio: 1.1 ± 0.23 for the first, 0.997 ± 0.057 for the second.

TAAAGAAGTG and TAAAGAGTGT are the same in switch fluorescence ratio: 1.01 ± 0.033 for the first, 1.01 ± 0.0042 for the second.

TAAAGATAAG and TAAAGCAGTA are within error of each other in switch fluorescence ratio: 0.98 ± 0.024 for the first, 0.995 ± 0.018 for the second.

TAAAGCGTTT and TAAAGCTGCT are within error of each other in switch fluorescence ratio: 1.12 ± 0.27 for the first, 0.9705 ± 0.0071 for the second.

TAAAGGAAGT and TAAAGGAATT are within error of each other in switch fluorescence ratio: 0.983 ± 0.04 for the first, 1.05 ± 0.03 for the second.

TAAAGGCCGT and TAAAGGGAAT are within error of each other in switch fluorescence ratio: 1.01 ± 0.018 for the first, 1.02 ± 0.056 for the second.

TAAAGGGATG and TAAAGGGGAA are within error of each other in switch fluorescence ratio: 0.956 ± 0.017 for the first, 1.01 ± 0.047 for the second.

TAAAGGGGCA and TAAAGGGGTT are within error of each other in switch fluorescence ratio: 1 ± 0.028 for the first, 0.986 ± 0.035 for the second.

TAAAGGTAGT and TAAAGGTCTT are within error of each other in switch fluorescence ratio: 1 ± 0.032 for the first, 1.01 ± 0.016 for the second.

Going from TAAAGGTGAA to TAAAGTAGTT, the switch fluorescence ratio falls from 1.077 ± 0.0066 to 1.01 ± 0.044.

TAAAGTGGCT and TAAAGTTTAG are within error of each other in switch fluorescence ratio: 0.985 ± 0.03 for the first, 1.02 ± 0.015 for the second.

TAAATAATCG and TAAATAATTG are within error of each other in switch fluorescence ratio: 0.968 ± 0.038 for the first, 1.008 ± 0.0069 for the second.

TAAATAATTT and TAAATAGTGG are within error of each other in switch fluorescence ratio: 1.01 ± 0.028 for the first, 0.987 ± 0.013 for the second.

TAAATATGTG and TAAATGGCCA are within error of each other in switch fluorescence ratio: 0.986 ± 0.021 for the first, 0.9798 ± 0.0051 for the second.

TAAATGGCGT and TAAATTAGCC are within error of each other in switch fluorescence ratio: 1.01 ± 0.033 for the first, 1.03 ± 0.014 for the second.

TAAATTATGT and TAAATTATTG are within error of each other in switch fluorescence ratio: 0.9816 ± 0.0076 for the first, 0.9768 ± 0.0079 for the second.

Going from TAAATTGATA to TAAATTGATG, the switch fluorescence ratio rises from 0.9924 ± 0.0055 to 1.036 ± 0.0049.

TAAATTTAAG and TAAATTTTAG are within error of each other in switch fluorescence ratio: 1 ± 0.027 for the first, 1.007 ± 0.0026 for the second.

First: TAAATTTTAT
Second: TAAATTTTTC
The switch fluorescence ratio of the first is lower: 1.012 ± 0.0058 for the first, 1.042 ± 0.008 for the second.

TAACAATATT and TAACAATTAA are within error of each other in switch fluorescence ratio: 0.99495 ± 0.00094 for the first, 1.03 ± 0.058 for the second.

TAACAATTGT and TAACAGAGTG are within error of each other in switch fluorescence ratio: 1.12 ± 0.18 for the first, 1 ± 0.023 for the second.

TAACAGGAAT and TAACAGGCGG are within error of each other in switch fluorescence ratio: 0.966 ± 0.042 for the first, 0.991 ± 0.028 for the second.

TAACAGGTAG and TAACAGGTAT are within error of each other in switch fluorescence ratio: 1.05 ± 0.035 for the first, 1 ± 0.046 for the second.

First: TAACATGGCC
Second: TAACCACCTT
The switch fluorescence ratio of the first is lower: 1 ± 0.022 for the first, 1.12 ± 0.044 for the second.

TAACCAGTTA and TAACCCGGGC are within error of each other in switch fluorescence ratio: 1.04 ± 0.019 for the first, 1.03 ± 0.066 for the second.

First: TAACCTACCG
Second: TAACGAACGC
The switch fluorescence ratio of the first is lower: 1.41 ± 0.037 for the first, 1.65 ± 0.086 for the second.

Going from TAACGCCCTA to TAACGCCGTG, the switch fluorescence ratio falls from 1.07 ± 0.019 to 1.02 ± 0.029.

First: TAACGCTGCC
Second: TAACGGCATG
The switch fluorescence ratio of the first is higher: 1.25 ± 0.12 for the first, 1.031 ± 0.0035 for the second.

Going from TAACGGGTTG to TAACGTATGT, the switch fluorescence ratio falls from 1.03 ± 0.029 to 0.9929 ± 0.0046.

TAACGTTTAT and TAACTAAATT are within error of each other in switch fluorescence ratio: 1.01 ± 0.032 for the first, 0.98675 ± 0.00031 for the second.

TAACTCAAGA and TAACTGGGTT are within error of each other in switch fluorescence ratio: 0.9979 ± 0.0066 for the first, 1.02 ± 0.036 for the second.

TAACTTATAA and TAAGAAAGTT are within error of each other in switch fluorescence ratio: 0.991 ± 0.0024 for the first, 1.41 ± 0.58 for the second.

TAAGAAGTCT and TAAGAATTCG are the same in switch fluorescence ratio: 1.04 ± 0.048 for the first, 1.04 ± 0.056 for the second.

TAAGAATTTG and TAAGACATTT are within error of each other in switch fluorescence ratio: 1.22 ± 0.34 for the first, 1.03 ± 0.04 for the second.

TAAGAGAATT and TAAGAGAGAA are within error of each other in switch fluorescence ratio: 1.02 ± 0.023 for the first, 0.986 ± 0.021 for the second.

TAAGAGATTG and TAAGAGCAGG are within error of each other in switch fluorescence ratio: 1.01 ± 0.022 for the first, 1.1 ± 0.091 for the second.

TAAGAGGCGC and TAAGAGGGGA are within error of each other in switch fluorescence ratio: 0.958 ± 0.077 for the first, 1.01 ± 0.027 for the second.

TAAGAGGGTC and TAAGAGGGTT are within error of each other in switch fluorescence ratio: 0.999 ± 0.041 for the first, 1 ± 0.022 for the second.

TAAGATAGGA and TAAGATAGTA are within error of each other in switch fluorescence ratio: 0.982 ± 0.013 for the first, 0.993 ± 0.023 for the second.

Going from TAAGATCTGG to TAAGATGACG, the switch fluorescence ratio rises from 1.006 ± 0.0021 to 1.13 ± 0.05.

First: TAAGATGAGA
Second: TAAGATTCGG
The switch fluorescence ratio of the first is lower: 0.936 ± 0.0097 for the first, 0.968 ± 0.015 for the second.

Going from TAAGATTGTA to TAAGCAGAGG, the switch fluorescence ratio rises from 0.993 ± 0.032 to 1.17 ± 0.13.

TAAGCATATG and TAAGCCATCT are within error of each other in switch fluorescence ratio: 1.011 ± 0.0037 for the first, 1.04 ± 0.054 for the second.

TAAGCGATCA and TAAGCGGAAT are within error of each other in switch fluorescence ratio: 1.02 ± 0.018 for the first, 1.03 ± 0.013 for the second.

TAAGCTTTTT and TAAGGATATG are within error of each other in switch fluorescence ratio: 1 ± 0.033 for the first, 1.01 ± 0.0069 for the second.

Compared with TAAGGATTGT, TAAGGCCTGT is lower in switch fluorescence ratio: 1.032 ± 0.0063 for the first, 0.9978 ± 0.0099 for the second.

TAAGGCTTAT and TAAGGGAAAT are within error of each other in switch fluorescence ratio: 0.988 ± 0.016 for the first, 1 ± 0.065 for the second.

TAAGGGCAAA and TAAGGGCCTT are within error of each other in switch fluorescence ratio: 1.02 ± 0.032 for the first, 0.992 ± 0.026 for the second.

TAAGGGCGGA and TAAGGGGAAT are within error of each other in switch fluorescence ratio: 1.01 ± 0.023 for the first, 1 ± 0.039 for the second.

TAAGGGGATA and TAAGGGGATC are within error of each other in switch fluorescence ratio: 1.06 ± 0.11 for the first, 0.987 ± 0.059 for the second.

TAAGGGGGG and TAAGGGGGT are within error of each other in switch fluorescence ratio: 1.01 ± 0.029 for the first, 1 ± 0.031 for the second.

TAAGGGGTAA and TAAGGGGTTA are within error of each other in switch fluorescence ratio: 0.947 ± 0.019 for the first, 0.992 ± 0.029 for the second.

Compared with TAAGGGTTGC, TAAGGGTTGG is lower in switch fluorescence ratio: 1.03 ± 0.016 for the first, 0.978 ± 0.03 for the second.

TAAGGTAATA and TAAGGTAGG are within error of each other in switch fluorescence ratio: 1.03 ± 0.051 for the first, 0.967 ± 0.029 for the second.

Compared with TAAGGTGGGT, TAAGTAAATA is lower in switch fluorescence ratio: 1.002 ± 0.0017 for the first, 0.9762 ± 0.004 for the second.

TAAGTCCTGT and TAAGTGCCAA are within error of each other in switch fluorescence ratio: 0.998 ± 0.033 for the first, 1.01 ± 0.032 for the second.

TAAGTGGAAA and TAAGTGGAAT are within error of each other in switch fluorescence ratio: 0.992 ± 0.05 for the first, 0.999 ± 0.022 for the second.

TAAGTGGGGT and TAAGTTAAGC are within error of each other in switch fluorescence ratio: 0.979 ± 0.026 for the first, 1 ± 0.064 for the second.

TAAGTTAGTT and TAAGTTATAG are within error of each other in switch fluorescence ratio: 0.979 ± 0.027 for the first, 1.02 ± 0.042 for the second.

TAAGTTATTT and TAAGTTTGTG are within error of each other in switch fluorescence ratio: 0.986 ± 0.031 for the first, 0.996 ± 0.05 for the second.

TAATAATATT and TAATAATTAA are within error of each other in switch fluorescence ratio: 1 ± 0.018 for the first, 0.992 ± 0.024 for the second.

In the case of TAATACGAGT, the switch fluorescence ratio is reported as 1.02 ± 0.014.
